Measurements from US20160334404.

Molecular target: Q13093
Assay: estimated from dilution inactivation (residual CAM activity against enzyme concentration), self-association

B1: recombinant lipoprotein-associated phospholipase A2 (rLp-PLA2) expressed in HEK293 cells (protein)
chain: FDWQYINPVAHMKSSAWVNKIQVLMAAASFGQTKIPRGNGPYSVGCTDLMFDHTNKGTFLRLYYPSQDNDRLDTLWIPNKEYFWGLSKFLGTHWLMGNILRLLFGSMTTPANWNSPLRPGEKYPLVVFSHGLGAFRTLYSAIGIDLASHGFIVAAVEHRDRSASATYYFKDQSAAEIGDKSWLYLRTLKQEEETHIRNEQVRQRAKECSQALSLILDIDHGKPVKNALDLKFDMEQLKDSIDREKIAVIGHSFGGATVIQTLSEDQRFRCGIALDAWMFPLGDEVYSRIPQPLFFINSEYFQYPANIIKMKKCYSPDKERKMITIRGSVHQNFADFTFATGKIIGHMLKLKGDIDSNVAIDLSNKASLAFLQKHLGLHKDFDQWDCLIEGDDENLIPGTNINTTNQHIMLQNSSGIEKYN
concentration at which roughly half is monomer and half aggregate or oligomer: At the concentration at 2.5 µg/ml or 53 nM, roughly half of rLp-PLA2 is in monomer and half forms the aggregate or oligomer as estimated
